Laboratory results reported in patent EP4733314A1, “NOVEL BISPECIFIC FUSION PROTEIN AND USE THEREOF” (Slbigen Inc., priority 2023, dated 2024).

Experiments:
[1] = Body weight in MASH model with intestinal leakage (CD-HFD + DSS); type: in vivo, C57BL/6J mice; settings: 55 nmol/kg twice daily s.c., two weeks after first administration
Description: (§1) Subsequently, the present inventors investigated the weight reduction and regulation of intestinal leakage in a metabolic dysfunction-associated steatohepatitis (MASH) animal model with intestinal leakage, using Liraglutide as a comparative control and MG12-8 according to one embodiment of the present invention. Specifically, twenty-week-old male C57BL/6J mice were obtained, and overweight was induced by feeding a choline-deficient high-fat diet (CD-HFD). In addition, intestinal leakage was induced by cyclically administering dextran sulfate sodium (DSS) at a low concentration of 1% for 7 days followed by 10 days of regular drinking water. After two weeks from the initiation of CD-HFD feeding, Liraglutide and MG12-8 were subcutaneously administered at their respective prescribed dosages and dosing intervals. Two weeks after the first administration, body weight was measured (FIG. 4a). To assess intestinal leakage, a fluorescein isothiocyanate (FITC)-Dextran (4 kDa) solution was administered orally 4 hours before sacrifice, after which the mice were fasted. The amount of FITC-Dextran translocated into the blood was then evaluated by measuring fluorescence intensity in serum.

[2] = Intestinal leakage (serum FITC-Dextran fluorescence) in MASH model (CD-HFD + DSS); type: in vivo, C57BL/6J mice; settings: 55 nmol/kg twice daily s.c.
Description: as §1

[3] = Anti-diabetic effect in db/db mice (blood glucose, HbA1c, insulin, HOMA-IR, HOMA-β); type: in vivo; settings: 15 nmol/kg s.c. every three days for 12 weeks
Protocol: Specifically, 14-week-old male db/db mice (Janvier Labs, France) were subcutaneously injected every three days for 12 weeks with designated doses of Semaglutide, Tirzepatide, or the bispecific fusion protein MG12-8 according to one embodiment of the present invention. Subsequently, non-fasting blood glucose levels were measured at 25-day intervals (on days 25, 50, and 75 of the experiment), and HbA1c levels were measured monthly up to three months. Additionally, at the end of the experiment, fasting blood glucose and serum insulin concentrations were determined, and HOMA-IR and HOMA-β scores were calculated.

[4] = Histological analysis of pancreatic tissue of db/db mice; type: in vivo; settings: pancreas after 12 weeks of dosing
Description: Subsequently, after completion of the above experiment, the present inventors sacrificed the experimental animals and performed histological analysis of pancreatic tissues. Specifically, after euthanizing the animals under general anesthesia at the end of the animal study, the pancreas was excised, fixed in 4% paraformaldehyde, embedded in paraffin, sectioned transversely into 5 µm slices using a microtome, and then subjected to staining either with insulin alone, double staining with insulin and glucagon, or double staining with insulin and Ki-67. All double staining was carried out using fluorescent-labeled antibodies, followed by imaging with a confocal laser microscope.

[5] = target: GLP-1 receptor; experiment: cell-based or functional assay
[6] = target: GLP-2 receptor; experiment: cell-based or functional assay

With “Liraglutide (HAEGTFTSDVSSYLEGQAAKEFIAWLVRGRG; REGION 1..31: note = Liraglutide) [GLP-1 receptor agonist marketed by Novo Nordisk as Victoza for the treatment of type 2 diabetes and obesity]” the “body weight compared with vehicle” value [1] was “reduced body weights compared with the vehicle-administered group” and the “intestinal leakage suppression activity (serum FITC-Dextran)” value [2] was “did not exhibit intestinal leakage suppression activity relative to the control”.

In the case of CC[C@H](C)[C@H](NC(=O)[C@H](CC(C)C)NC(=O)[C@H](Cc1c[nH]c2ccccc12)NC(=O)[C@H](CCC(N)=O)NC(=O)[C@@H](NC(=O)[C@H](Cc1ccccc1)NC(=O)[C@H](C)NC(=O)[C@H](CCCCNC(=O)COCCOCCNC(=O)COCCOCCNC(=O)CC[C@H](NC(=O)CCCCCCCCCCCCCCCCCCC(=O)O)C(=O)O)NC(=O)[C@H](CCC(N)=O)NC(=O)[C@H](C)NC(=O)[C@@H](NC(=O)[C@H](CCCCN)NC(=O)[C@H](CC(=O)O)NC(=O)[C@H](CC(C)C)NC(=O)C(C)(C)NC(=O)[C@@H](NC(=O)[C@H](CO)NC(=O)[C@H](Cc1ccc(O)cc1)NC(=O)[C@H](CC(=O)O)NC(=O)[C@H](CO)NC(=O)[C@@H](NC(=O)[C@H](Cc1ccccc1)NC(=O)[C@@H](NC(=O)CNC(=O)[C@H](CCC(=O)O)NC(=O)C(C)(C)NC(=O)[C@@H](N)Cc1ccc(O)cc1)[C@@H](C)O)[C@@H](C)O)[C@@H](C)CC)[C@@H](C)CC)C(C)C)C(=O)N[C@@H](C)C(=O)NCC(=O)NCC(=O)N1CCC[C@H]1C(=O)N[C@@H](CO)C(=O)N[C@@H](CO)C(=O)NCC(=O)N[C@@H](C)C(=O)N1CCC[C@H]1C(=O)N1CCC[C@H]1C(=O)N1CCC[C@H]1C(=O)N[C@@H](CO)C(N)=O [Tirzepatide], the “insulin resistance index (HOMA-IR)” value [3] is reported as greater than 40 and the “number of Ki-67-positive cells per 10,000 µm^2” value [4] is reported as “showed no improvement compared with the control group”.

Molecule “wild-type GLP-1 (human GLP-1 peptide) (from UniProt P01275 21-180)” has a GLP-1 activity (Set1), EC50 (nM); cAMP bioluminescence in GLP-1R-expressing CHO-K1 cells [5] of 0.69 nM, a GLP-1 activity (Set1), Relative activity compared with hGLP-1 peptide (%) [5] of 100% and a GLP-1 activity (Set2), EC50 (nM); cAMP bioluminescence in GLP-1R-expressing CHO-K1 cells [5] of 0.89 nM. The GLP-1 activity (Set2), Relative activity compared with hGLP-1 peptide (%) [5] was 100%.

wild-type GLP-2 (human GLP-2 peptide) showed a GLP-2 activity, EC50 (nM); cAMP bioluminescence in GLP-2R-expressing CHO-K1 cells [6] of 1.18 nM.

B1: MG12-6 (Fc fusion)
chain 1: HGEGTFTSDVSSYLEGQAAKEFIAWLVKGGPSSGAPPPSGGGGSGGGGSGGGGSEKEKEEQEERTHTCPPCPSHTQPLGVFLFPPKPKDQLMISRTPEVTCVVVDVSQEDPEVQFNWYVDGVEVHNAKTKPREEQFNSTYRVVSVLTVLHQDWLNGKEYKCKVSNKGLPSSIEKTISKAKGQPREPQVYTLPPCQEEMTKNQVSLWCLVKGFYPSDIAVEWESNGQPENNYKTTPPVLDSDGSFFLYSRLTVDKSRWQEGNVFSCSVLHEALHNHYTQKSLSLSLGK
chain 2: HGDGSFSDEMNTILDNLAARDFINWLIQTKITDGGGGGSGGGGSGGGGSAKNTTAPATTRNTTRGGEEKKKEKEKEEQEERTHTCPPCPSHTQPLGVFLFPPKPKDQLMISRTPEVTCVVVDVSQEDPEVQFNWYVDGVEVHNAKTKPREEQFNSTYRVVSVLTVLHQDWLNGKEYKCKVSNKGLPSSIEKTISKAKGQPREPQVCTLPPSQEEMTKNQVSLSCAVKGFYPSDIAVEWESNGQPENNYKTTPPVLDSDGSFFLVSRLTVDKSRWQEGNVFSCSVLHEALHNHYTQKSLSLSLGK
B1 gave a GLP-1 activity (Set1), EC50 (nM); cAMP bioluminescence in GLP-1R-expressing CHO-K1 cells [5] of 1.57 nM, a GLP-1 activity (Set1), Relative activity compared with hGLP-1 peptide (%) [5] of 44% and a GLP-1 activity (Set2), EC50 (nM); cAMP bioluminescence in GLP-1R-expressing CHO-K1 cells [5] of 1.12 nM. The GLP-1 activity (Set2), Relative activity compared with hGLP-1 peptide (%) [5] was 79%, the GLP-2 activity, EC50 (nM); cAMP bioluminescence in GLP-2R-expressing CHO-K1 cells [6] was 2.42 nM and the GLP-2 activity, Relative activity compared with hGLP-2 peptide (%) [6] was 49%.

B2: MG12-7 (Fc fusion)
chain 1: HGEGTFTSDVSSYLEGQAAKEFIAWLVKGGPSSGAPPPSGGGGSGGGGSGGGGSAKNTTAPATTRNTTRGGEEKKKEKEKEEQEERTHTCPPCPSHTQPLGVFLFPPKPKDQLMISRTPEVTCVVVDVSQEDPEVQFNWYVDGVEVHNAKTKPREEQFNSTYRVVSVLTVLHQDWLNGKEYKCKVSNKGLPSSIEKTISKAKGQPREPQVYTLPPCQEEMTKNQVSLWCLVKGFYPSDIAVEWESNGQPENNYKTTPPVLDSDGSFFLYSRLTVDKSRWQEGNVFSCSVLHEALHNHYTQKSLSLSLGK
chain 2: HGDGSFSDEMNTILDGQAARDFINWLIQTKITDGGGGSGGGGSGGGGSEPKSSDKTHTCPPCPSHTQPLGVFLFPPKPKDQLMISRTPEVTCVVVDVSQEDPEVQFNWYVDGVEVHNAKTKPREEQFNSTYRVVSVLTVLHQDWLNGKEYKCKVSNKGLPSSIEKTISKAKGQPREPQVCTLPPSQEEMTKNQVSLSCAVKGFYPSDIAVEWESNGQPENNYKTTPPVLDSDGSFFLVSRLTVDKSRWQEGNVFSCSVLHEALHNHYTQKSLSLSLGK
Work on B2 yielded a GLP-1 activity (Set1), EC50 (nM); cAMP bioluminescence in GLP-1R-expressing CHO-K1 cells [5] of 0.35 nM, a GLP-1 activity (Set1), Relative activity compared with hGLP-1 peptide (%) [5] of 194% and a GLP-1 activity (Set2), EC50 (nM); cAMP bioluminescence in GLP-1R-expressing CHO-K1 cells [5] of 0.57 nM. It also gave a GLP-1 activity (Set2), Relative activity compared with hGLP-1 peptide (%) [5] of 156%, a GLP-2 activity, EC50 (nM); cAMP bioluminescence in GLP-2R-expressing CHO-K1 cells [6] of 50.8 nM and a GLP-2 activity, Relative activity compared with hGLP-2 peptide (%) [6] of 2%.

B3: MG12-8 (Fc fusion)
chain 1: HGEGTFTSDVSSYLEGQAAKEFIAWLVKGGPSSGAPPPSGGGGSGGGGSGGGGSGGGGSGGGGSGGGGSHGEGTFTSDVSSYLEGQAAKEFIAWLVKGGPSSGAPPPSGGGGSGGGGSGGGGSEPKSSDKTHTCPPCPSHTQPLGVFLFPPKPKDQLMISRTPEVTCVVVDVSQEDPEVQFNWYVDGVEVHNAKTKPREEQFNSTYRVVSVLTVLHQDWLNGKEYKCKVSNKGLPSSIEKTISKAKGQPREPQVYTLPPCQEEMTKNQVSLWCLVKGFYPSDIAVEWESNGQPENNYKTTPPVLDSDGSFFLYSRLTVDKSRWQEGNVFSCSVLHEALHNHYTQKSLSLSLGK
chain 2: B2 chain 2
B3 showed a GLP-1 activity (Set1), EC50 (nM); cAMP bioluminescence in GLP-1R-expressing CHO-K1 cells [5] of 0.81 nM, a GLP-1 activity (Set1), Relative activity compared with hGLP-1 peptide (%) [5] of 85% and a GLP-1 activity (Set2), EC50 (nM); cAMP bioluminescence in GLP-1R-expressing CHO-K1 cells [5] of 0.71 nM. The GLP-1 activity (Set2), Relative activity compared with hGLP-1 peptide (%) [5] was 125%, the relative GLP-1 activity, MG12-8 Sample #1; cAMP bioluminescence in HEK-GLP-1R cells [5] was 100% and the relative GLP-1 activity, MG12-8 Sample #2; cAMP bioluminescence in HEK-GLP-1R cells [5] was 200%. For the same molecule, the relative GLP-1 activity, MG12-8 Sample #3; cAMP bioluminescence in HEK-GLP-1R cells [5] was 300%, the relative GLP-1 activity, MG12-8 Sample #4; cAMP bioluminescence in HEK-GLP-1R cells [5] was 400% and the GLP-2 activity, EC50 (nM); cAMP bioluminescence in GLP-2R-expressing CHO-K1 cells [6] was 19 nM. The GLP-2 activity, Relative activity compared with hGLP-2 peptide (%) [6] was 6%.
